Here are results for eight molecules from US12371817 (TEXAS A AND M UNIVERSITY SYSTEM, dated 2025).

Numbered stars: 1 amine (or outer) side, 2 acyl side, 3 side chain; on linkers, the order of the positions; unused ones are H or OH. Square brackets hold non-standard residues; d marks the D form. Ends that are not written are not given here. * marks the point of attachment. thBuK = N^ε-thiobutyryl-lysine, CCCC(=S)NCCCC[C@H](N[*:1])C(=O)[*:2]; Crotonyl(E) = C/C=C/C(=O)*; Abu = CC[C@H](N)C(=O)O

Test [1] has as its target T1, recombinant human sirtuin 2 (His6-SIRT2) (human, UniProt Q8IXJ6 1-389).
T1 chain: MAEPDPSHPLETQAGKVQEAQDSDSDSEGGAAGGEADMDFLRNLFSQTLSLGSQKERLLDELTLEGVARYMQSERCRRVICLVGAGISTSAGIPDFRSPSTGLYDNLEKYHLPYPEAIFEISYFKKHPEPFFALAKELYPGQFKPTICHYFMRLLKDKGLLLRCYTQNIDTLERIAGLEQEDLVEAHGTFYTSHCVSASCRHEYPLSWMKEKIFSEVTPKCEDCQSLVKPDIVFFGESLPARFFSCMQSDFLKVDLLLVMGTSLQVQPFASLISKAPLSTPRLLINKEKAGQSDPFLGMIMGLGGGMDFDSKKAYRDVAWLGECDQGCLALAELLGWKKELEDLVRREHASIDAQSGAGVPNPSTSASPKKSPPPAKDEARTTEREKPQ
In words: deacetylase inhibition.

For test [2], the target named is T2, recombinant human sirtuin 2 (His6-SIRT2) (human, UniProt Q8IXJ6 1-389).
T2 sequence (looked up): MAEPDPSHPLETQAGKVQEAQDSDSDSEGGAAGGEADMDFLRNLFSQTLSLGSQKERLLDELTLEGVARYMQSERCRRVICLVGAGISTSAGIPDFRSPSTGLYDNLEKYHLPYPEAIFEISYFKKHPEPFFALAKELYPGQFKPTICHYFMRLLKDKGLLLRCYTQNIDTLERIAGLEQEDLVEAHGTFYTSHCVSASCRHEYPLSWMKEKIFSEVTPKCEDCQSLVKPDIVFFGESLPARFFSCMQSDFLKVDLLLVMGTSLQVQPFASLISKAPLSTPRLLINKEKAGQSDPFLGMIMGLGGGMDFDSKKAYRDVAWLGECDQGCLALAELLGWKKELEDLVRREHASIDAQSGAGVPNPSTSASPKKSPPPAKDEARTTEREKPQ
In words: cell-based or functional assay.

A further test concerns the target T3, ENL (UniProt Q03111 1-148, limits assumed).
T3 construct: also called ENL protein
T3 sequence (looked up): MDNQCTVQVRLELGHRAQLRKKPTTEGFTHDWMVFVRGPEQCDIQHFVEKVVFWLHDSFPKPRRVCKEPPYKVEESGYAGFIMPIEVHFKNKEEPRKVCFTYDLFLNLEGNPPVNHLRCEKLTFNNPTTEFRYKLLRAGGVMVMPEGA
In words: fluorescence polarization, 5-FAM-conjugated peptide binding to ENL.

In test [3] the target is T4, human sirtuin 3 (GST-SIRT3) (human, UniProt Q9NTG7 102-399).
T4 sequence (looked up): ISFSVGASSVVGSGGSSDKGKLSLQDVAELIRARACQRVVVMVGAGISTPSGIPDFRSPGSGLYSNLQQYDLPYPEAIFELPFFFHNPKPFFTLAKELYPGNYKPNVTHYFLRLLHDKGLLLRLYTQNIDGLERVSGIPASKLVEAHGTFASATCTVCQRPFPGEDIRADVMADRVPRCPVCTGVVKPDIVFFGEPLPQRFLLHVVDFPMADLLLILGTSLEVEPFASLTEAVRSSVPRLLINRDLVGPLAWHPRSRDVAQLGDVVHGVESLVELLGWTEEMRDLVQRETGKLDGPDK
In words: cell-based or functional assay.

Test [4] concerns the target T5, human sirtuin 1 (His6-SIRT1) (human, UniProt Q96EB6 1-747).
T5 sequence (looked up): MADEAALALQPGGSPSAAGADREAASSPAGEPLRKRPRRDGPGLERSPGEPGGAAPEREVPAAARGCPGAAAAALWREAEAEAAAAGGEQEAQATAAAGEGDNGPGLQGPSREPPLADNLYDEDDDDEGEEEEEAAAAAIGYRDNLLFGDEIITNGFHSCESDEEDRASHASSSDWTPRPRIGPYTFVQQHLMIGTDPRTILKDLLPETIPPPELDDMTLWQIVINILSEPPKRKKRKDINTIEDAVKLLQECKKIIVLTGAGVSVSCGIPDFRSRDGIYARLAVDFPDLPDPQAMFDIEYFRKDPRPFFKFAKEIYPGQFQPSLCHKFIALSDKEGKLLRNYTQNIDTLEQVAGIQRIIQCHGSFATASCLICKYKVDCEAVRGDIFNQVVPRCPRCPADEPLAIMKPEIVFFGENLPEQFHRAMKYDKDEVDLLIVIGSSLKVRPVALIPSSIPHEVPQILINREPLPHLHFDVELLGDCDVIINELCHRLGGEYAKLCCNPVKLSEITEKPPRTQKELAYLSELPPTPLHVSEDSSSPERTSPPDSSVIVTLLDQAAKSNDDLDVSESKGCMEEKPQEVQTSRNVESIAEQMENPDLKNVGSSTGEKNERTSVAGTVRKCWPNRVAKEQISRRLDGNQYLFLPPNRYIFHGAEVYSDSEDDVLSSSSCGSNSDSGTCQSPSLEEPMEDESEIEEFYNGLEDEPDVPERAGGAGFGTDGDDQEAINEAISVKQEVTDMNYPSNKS
In words: cell-based or functional assay.

B1: S2P03 (NH2-CTVXTSL-NH2), synthesized with N^ε-thiobutyryl-lysine (thBuK) in place of BuK (peptide)
peptide: H-CTV[thBuK]TSL-NH2
SMILES: CCCC(=S)NCCCC[C@H](NC(=O)[C@@H](NC(=O)[C@@H](NC(=O)[C@@H](N)CS)[C@@H](C)O)C(C)C)C(=O)N[C@H](C(=O)N[C@@H](CO)C(=O)N[C@@H](CC(C)C)C(N)=O)[C@@H](C)O
Regarding B1, the 50% inhibitory concentration (IC50) in test [1] worked out at 0.068 µM.

B2: S2P04-5, truncated version of S2P04 containing only the five residues of the consensus motif (peptide)
peptide: CTV[thBuK]I-NH2
modifications: N-terminus assumed
SMILES: CCCC(=S)NCCCC[C@H](NC(=O)[C@@H](NC(=O)[C@@H](NC(=O)[C@@H](N)CS)[C@@H](C)O)C(C)C)C(=O)N[C@H](C(N)=O)[C@@H](C)CC
For B2, the “IC50, inhibition of SIRT2 (fluorogenic sirtuin substrate assay)” value in test [2] turned out to be 0.136 µM.
Molecule DIWCFK(Crotonyl(E))G (also: 5-FAM conjugated, site not given here) [5-FAM-conjugated 7CrKEnl1] had a dissociation constant Kd with ENL of 0.094 µM.

B3: S2P04 (Abu)-5 (NH2-ZTVXI-NH2, Z is aminobutyric acid) (peptide)
peptide: H-[Abu]TV[thBuK]I-NH2
SMILES: CCCC(=S)NCCCC[C@H](NC(=O)[C@@H](NC(=O)[C@@H](NC(=O)[C@@H](N)CC)[C@@H](C)O)C(C)C)C(=O)N[C@H](C(N)=O)[C@@H](C)CC
For the molecule B3, the IC50 in test [1] was found to be 0.119 µM.

B4: S2P04 (NH2-TCTVXIG-NH2), synthesized with N^ε-thiobutyryl-lysine (thBuK) in place of BuK (peptide)
peptide: H-TCTV[thBuK]IG-NH2
SMILES: CCCC(=S)NCCCC[C@H](NC(=O)[C@@H](NC(=O)[C@@H](NC(=O)[C@H](CS)NC(=O)[C@@H](N)[C@@H](C)O)[C@@H](C)O)C(C)C)C(=O)N[C@H](C(=O)NCC(N)=O)[C@@H](C)CC
For the molecule B4, the “fold more potent than TB (sirtuin inhibition)” value in test [2], in test [3] and in test [4] was at least 33 fold each time. The “fold by which SIRT2 is inhibited more potently than SIRT3” value in test [3] stood at 152 fold. In addition, the “fold by which SIRT2 is inhibited more potently than SIRT1” value in test [4] turned out to be 2.7 fold. Further, the IC50 in test [1] was 0.092 µM.

B5: S2P07 (NH2-CTFXVPT-NH2), synthesized with N^ε-thiobutyryl-lysine (thBuK) in place of BuK (peptide)
peptide: H-CTF[thBuK]VPT-NH2
SMILES: CCCC(=S)NCCCC[C@H](NC(=O)[C@H](Cc1ccccc1)NC(=O)[C@@H](NC(=O)[C@@H](N)CS)[C@@H](C)O)C(=O)N[C@H](C(=O)N1CCC[C@H]1C(=O)N[C@H](C(N)=O)[C@@H](C)O)C(C)C
B5: in test [1], the IC50 is 0.101 µM.
In the case of SK(Crotonyl(E))DIWCF (also: 5-FAM conjugated, site not given here) [5-FAM-conjugated 7CrKEnl2], in the test with ENL, the Kd amounted to 0.09 µM.

B6: Ac-S2P04-5 (Ac-CTVXI-NH2) (peptide)
peptide: Ac-CTV[thBuK]I-NH2
SMILES: CCCC(=S)NCCCC[C@H](NC(=O)[C@@H](NC(=O)[C@@H](NC(=O)[C@H](CS)NC(C)=O)[C@@H](C)O)C(C)C)C(=O)N[C@H](C(N)=O)[C@@H](C)CC
On to B6, for which the IC50 in test [1] was determined as 0.191 µM.
